± gives the uncertainty stated by the source.

The values that follow come from the supplement of paper PMC9732359.

The nature of this data set: protein stability index of a GFP-peptide fusion (yeast GPS) (PSI 1-4); higher = more stable; sorted into four equal gates, so the index is relative within each strain. The method, boiled down: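 Yeast carrying a pooled library were grown to mid-log phase in leucine-free medium. Each library plasmid expresses Cherry and has a tiled 17-residue yeast protein peptide fused downstream of GFP. Cells were sorted into four equal gates by GFP/Cherry ratio, and plasmids from each gate were PCR-amplified, Illumina-sequenced and assigned to strains by barcode. Summing, across gates, the read frequency times the gate number gave each peptide's protein stability index.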

For FQMNCYAKEDAFSYPRM [RPN2], the protein stability index reads like this: (doa10∆) 2.53 ± 0.12; (pdr5∆) 2.52 ± 0.078; (san1∆) 2.48 ± 0.077; (ubr1∆) 2.61 ± 0.047.

LRTEYGWDSLASRNVWS [SNU114]: the protein stability index stood at 2.85 ± 0.099 (doa10∆), 3.11 ± 0.12 (pdr5∆), 3.4 ± 0.099 (san1∆) and 3.38 ± 0.076 (ubr1∆).

As for MLHKVLENKADPLVSLM [RPT6], the protein stability index is, setting by setting: (doa10∆) 2.28 ± 0.08; (pdr5∆) 2.15 ± 0.063; (san1∆) 2.71 ± 0.058; (ubr1∆) 2.23 ± 0.066.

Turning to YIQERLKSLNDIETQLC [MED11], the protein stability index reads like this: (doa10∆) 2.83 ± 0.083; (pdr5∆) 2.68 ± 0.091; (san1∆) 2.77 ± 0.1; (ubr1∆) 2.8 ± 0.07.

Regarding DTSRPDLEWQELTSFSS [DSN1], the protein stability index turned out to be 3.18 ± 0.053 (doa10∆), 3.05 ± 0.053 (pdr5∆), 3.08 ± 0.055 (san1∆) and 2.85 ± 0.042 (ubr1∆).

ISGDISDMQHIERLLKD [PRE4] had a protein stability index (doa10∆) of 2.99 ± 0.14, a protein stability index (pdr5∆) of 3.1 ± 0.11, a protein stability index (san1∆) of 3.13 ± 0.14 and a protein stability index (ubr1∆) of 2.99 ± 0.1.

Consider KEEQPKQIIVTRKAMLD [PRP8], for which the protein stability index worked out at 2.62 ± 0.078 (doa10∆), 3.09 ± 0.082 (pdr5∆), 2.71 ± 0.068 (san1∆) and 2.61 ± 0.049 (ubr1∆).

TSSRQTVFLPMVGLVDP [RPT5]: the protein stability index came to 2.55 ± 0.038 (doa10∆), 2.62 ± 0.044 (pdr5∆), 2.39 ± 0.044 (san1∆) and 2.16 ± 0.033 (ubr1∆).

As for ITRSFKEPRLVIVTDPR [RPS0A], the protein stability index runs as follows: (doa10∆) 1.56 ± 0.2; (pdr5∆) 1.89 ± 0.13; (san1∆) 1.98 ± 0.14; (ubr1∆) 1.28 ± 0.13.

In turn, KIENSVQIGAEIILDFL [CSI1] returned a protein stability index (doa10∆) of 2.73 ± 0.24, a protein stability index (pdr5∆) of 2.83 ± 0.16, a protein stability index (san1∆) of 2.38 ± 0.12 and a protein stability index (ubr1∆) of 2.61 ± 0.11.

Turning to KDWELEARFWHLVELLL [YDL116W/NUP84], the protein stability index runs as follows: (doa10∆) 2.26 ± 0.1; (pdr5∆) 2.15 ± 0.086; (san1∆) 1.92 ± 0.15; (ubr1∆) 2.28 ± 0.062.

As for PAALDGLMKSYKIPKVM [ESC2], the protein stability index is, setting by setting: (doa10∆) 2.76 ± 0.068; (pdr5∆) 2.94 ± 0.12; (san1∆) 2.85 ± 0.061; (ubr1∆) 3.45 ± 0.088.

Consider LSSVALRSDFYILANHY [YJL039C/NUP192], for which the protein stability index (doa10∆) amounted to 2.06 ± 0.15, the protein stability index (pdr5∆) came to 2.28 ± 0.13, the protein stability index (san1∆) was found to be 1.59 ± 0.24 and the protein stability index (ubr1∆) came out at 2 ± 0.098.

As to KLLASTEENKANTNSVT [YIL149C/MLP2], the protein stability index (doa10∆) was 3.32 ± 0.083, the protein stability index (pdr5∆) turned out to be 3.24 ± 0.066, the protein stability index (san1∆) came out at 3.25 ± 0.056 and the protein stability index (ubr1∆) is 3.32 ± 0.036.

Consider DIEDALVLNKSSIDRGF [RET1], for which the protein stability index stood at 2.37 ± 0.095 (doa10∆), 2.83 ± 0.14 (pdr5∆), 2.24 ± 0.19 (san1∆) and 2.97 ± 0.22 (ubr1∆).

In the case of GKDRIAINVFPEGYKAK [RPO31], the protein stability index reads like this: (doa10∆) 2.37 ± 0.061; (pdr5∆) 2.28 ± 0.079; (san1∆) 2.5 ± 0.07; (ubr1∆) 2.68 ± 0.072.

Turning to PAGMNETPKSNNSLSYH [ITC1], the protein stability index reads like this: (doa10∆) 2.08 ± 0.14; (pdr5∆) 3.22 ± 0.12; (san1∆) 2.56 ± 0.14; (ubr1∆) 3 ± 0.092.

For the sequence DIKANGSIQKGMPHKFY [RPL21A], the protein stability index stood at 3.01 ± 0.21 (doa10∆), 3.07 ± 0.15 (pdr5∆), 3.07 ± 0.28 (san1∆) and 3.64 ± 0.14 (ubr1∆).

Take TAKPAFSFGAKPAEKNN [YJL041W/NSP1]: the protein stability index runs as follows: (doa10∆) 3.19 ± 0.11; (pdr5∆) 3.35 ± 0.12; (san1∆) 3.19 ± 0.11; (ubr1∆) 3.4 ± 0.15.

With AFKATNQTNINSLAVRG [SCL1], the protein stability index (doa10∆) was found to be 3.1 ± 0.11, the protein stability index (pdr5∆) was determined as 3.21 ± 0.085 and the protein stability index (ubr1∆) stood at 2.84 ± 0.11.

Consider NPNNVNVQTQYREAPVI [RET1], for which the protein stability index reads like this: (doa10∆) 2.5 ± 0.085; (pdr5∆) 2.73 ± 0.045; (san1∆) 2.48 ± 0.1; (ubr1∆) 2.63 ± 0.057.

Turning to LLNAADRDALSGWGAVV [PUP3], the protein stability index by setting is: (doa10∆) 3.17 ± 0.12; (pdr5∆) 3.2 ± 0.099; (san1∆) 3.03 ± 0.081; (ubr1∆) 3.09 ± 0.099.

In turn, QQQQQQQVPPLPDELTL [DLS1] returned a protein stability index (doa10∆) of 2.63 ± 0.035, a protein stability index (pdr5∆) of 2.72 ± 0.038, a protein stability index (san1∆) of 2.727 ± 0.027 and a protein stability index (ubr1∆) of 2.689 ± 0.025.

As for MERLDGDYNNTVYSSEQ [SMC3], the protein stability index by setting is: (doa10∆) 2.94 ± 0.11; (pdr5∆) 3.18 ± 0.12; (san1∆) 3.25 ± 0.071; (ubr1∆) 3.16 ± 0.042.

Consider NNLEKYPFRYKTWLRNQ [RTT102], for which the protein stability index is, setting by setting: (doa10∆) 3.37 ± 0.077; (pdr5∆) 3.39 ± 0.053; (san1∆) 3.32 ± 0.061; (ubr1∆) 3.38 ± 0.067.

For the sequence AGDLRALDTVTNVLNFI [FAS1], the protein stability index reads like this: (doa10∆) 3.04 ± 0.1; (pdr5∆) 3.22 ± 0.14; (san1∆) 2.95 ± 0.11; (ubr1∆) 2.54 ± 0.24.

Regarding LNDSNVKSFKPHLLKQG [RRP42], the protein stability index runs as follows: (doa10∆) 2.63 ± 0.083; (pdr5∆) 3.25 ± 0.18; (san1∆) 2.58 ± 0.24; (ubr1∆) 2.54 ± 0.13.

As to RAVGGEVGASAALAPKI [RPL12A], the protein stability index by setting is: (doa10∆) 3.37 ± 0.14; (pdr5∆) 3.21 ± 0.17; (san1∆) 1.86 ± 0.18; (ubr1∆) 3.2 ± 0.1.

Consider VSVIAPESQGQHEQQKQ [YMR153W/NUP53], for which the protein stability index runs as follows: (doa10∆) 2.92 ± 0.085; (pdr5∆) 3.15 ± 0.097; (san1∆) 2.91 ± 0.068; (ubr1∆) 2.94 ± 0.068.

As for LKKFLQEKMDPNNSRDD [IRR1], the protein stability index runs as follows: (doa10∆) 3.11 ± 0.081; (pdr5∆) 3.12 ± 0.068; (san1∆) 3.19 ± 0.064; (ubr1∆) 3.09 ± 0.07.

In the case of LMEKNRIRKLTGQNFLT [REC8], the protein stability index amounted to 1.36 ± 0.044 (doa10∆), 1.37 ± 0.038 (pdr5∆), 1.65 ± 0.077 (san1∆) and 1.33 ± 0.041 (ubr1∆).

Turning to GRIPNVPVIVKARFVSK [RPL28], the protein stability index was found to be 2.32 ± 0.025 (doa10∆), 2.575 ± 0.024 (pdr5∆), 2.599 ± 0.025 (san1∆) and 2.648 ± 0.021 (ubr1∆).

For QLKRWYWQFNGVIALGQ [RMP1], the protein stability index (ubr1∆) was 1.41 ± 0.22.

Take TDDVRLAPELNQAIWKR [RPL31A]: the protein stability index reads like this: (doa10∆) 3.28 ± 0.1; (pdr5∆) 3.3 ± 0.077; (san1∆) 3.18 ± 0.079; (ubr1∆) 3.12 ± 0.048.

As for CRYSCLALERMVPKRST [YCS4], the protein stability index stood at 2.71 ± 0.27 (doa10∆) and 2.02 ± 0.18 (ubr1∆).

Take VDSTFQKVSENFEAVFE [SMC3]: the protein stability index was 3.32 ± 0.088 (doa10∆), 3.38 ± 0.081 (pdr5∆), 3.42 ± 0.063 (san1∆) and 3.09 ± 0.048 (ubr1∆).

Consider QGATNEGYQNDINTIKL [SRP72], for which the protein stability index came to 3.54 ± 0.27 (doa10∆), 3.15 ± 0.17 (pdr5∆) and 2.46 ± 0.23 (san1∆).

Regarding NECIEERVPKTQLDKLR [SMB1], the protein stability index is, setting by setting: (doa10∆) 3.1 ± 0.051; (pdr5∆) 3.07 ± 0.062; (san1∆) 3.136 ± 0.03; (ubr1∆) 3.24 ± 0.046.

Sequence PLSAGFNYGKLPLPPSV [SIN4] yielded a protein stability index (doa10∆) of 2.75 ± 0.074, a protein stability index (pdr5∆) of 2.9 ± 0.068, a protein stability index (san1∆) of 2.84 ± 0.038 and a protein stability index (ubr1∆) of 2.93 ± 0.051.
